Measured values: patent US20220340682A1 (Sanofi, published 2022)

T1: hCEACAM5, human CEACAM5 ECD (35-685) (human, UniProt P06731 35-685)
T1 construct: produced in HEK293; also called human CEACAM5 protein; human CEACAM5 extracellular domain
T1 sequence: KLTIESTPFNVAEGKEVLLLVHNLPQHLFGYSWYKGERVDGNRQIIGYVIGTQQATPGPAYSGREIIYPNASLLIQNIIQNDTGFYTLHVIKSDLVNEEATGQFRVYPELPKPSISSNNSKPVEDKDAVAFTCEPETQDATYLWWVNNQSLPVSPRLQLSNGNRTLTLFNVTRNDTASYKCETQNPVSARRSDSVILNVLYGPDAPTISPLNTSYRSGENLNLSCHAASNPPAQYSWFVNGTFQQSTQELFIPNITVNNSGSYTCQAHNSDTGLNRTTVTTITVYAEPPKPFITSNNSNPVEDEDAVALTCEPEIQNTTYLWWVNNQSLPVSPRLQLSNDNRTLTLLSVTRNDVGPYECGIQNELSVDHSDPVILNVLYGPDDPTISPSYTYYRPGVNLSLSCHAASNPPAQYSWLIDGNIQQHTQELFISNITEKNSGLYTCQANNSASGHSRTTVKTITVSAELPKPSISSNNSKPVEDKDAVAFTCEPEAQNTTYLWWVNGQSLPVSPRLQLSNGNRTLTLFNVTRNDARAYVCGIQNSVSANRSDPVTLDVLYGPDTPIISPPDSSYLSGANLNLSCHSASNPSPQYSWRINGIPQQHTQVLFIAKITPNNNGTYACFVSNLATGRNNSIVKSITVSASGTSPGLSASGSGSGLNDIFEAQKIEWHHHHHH

T2: hCEACAM1, human CEACAM1 ECD (35-428) (human, UniProt P13688 35-428)
T2 construct: With 24 amino acid extension containing a His-Tag; also called hEACAM1
T2 sequence: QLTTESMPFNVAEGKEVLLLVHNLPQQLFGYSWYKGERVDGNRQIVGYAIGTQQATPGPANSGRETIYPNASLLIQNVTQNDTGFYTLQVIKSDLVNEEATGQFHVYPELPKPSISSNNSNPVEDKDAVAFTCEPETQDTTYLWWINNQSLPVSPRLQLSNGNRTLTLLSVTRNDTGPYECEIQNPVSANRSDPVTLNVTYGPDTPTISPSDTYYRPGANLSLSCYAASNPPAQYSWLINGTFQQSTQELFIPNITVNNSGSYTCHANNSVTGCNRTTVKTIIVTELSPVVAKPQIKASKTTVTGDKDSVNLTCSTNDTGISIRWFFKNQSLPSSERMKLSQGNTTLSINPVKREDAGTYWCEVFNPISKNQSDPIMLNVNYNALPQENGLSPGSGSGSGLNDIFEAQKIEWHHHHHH

T3: hCEACAM6, human CEACAM6 ECD (35-327) (human, UniProt P40199 35-327)
T3 construct: With 24 amino acid extension containing a His-Tag
T3 sequence: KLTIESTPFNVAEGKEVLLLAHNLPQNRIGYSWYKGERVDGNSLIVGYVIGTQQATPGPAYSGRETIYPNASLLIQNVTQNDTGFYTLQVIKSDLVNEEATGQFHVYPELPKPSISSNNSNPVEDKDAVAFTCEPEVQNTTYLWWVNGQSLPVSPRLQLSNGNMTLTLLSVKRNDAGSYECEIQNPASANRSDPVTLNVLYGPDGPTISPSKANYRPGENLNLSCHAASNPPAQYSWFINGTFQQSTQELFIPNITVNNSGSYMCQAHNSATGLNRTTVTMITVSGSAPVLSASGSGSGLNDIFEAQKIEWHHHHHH

T4: hCEACAM7, human CEACAM7 ECD (36-248) (human)
T4 construct: With 24 amino acid extension containing a His-Tag
T4 chain: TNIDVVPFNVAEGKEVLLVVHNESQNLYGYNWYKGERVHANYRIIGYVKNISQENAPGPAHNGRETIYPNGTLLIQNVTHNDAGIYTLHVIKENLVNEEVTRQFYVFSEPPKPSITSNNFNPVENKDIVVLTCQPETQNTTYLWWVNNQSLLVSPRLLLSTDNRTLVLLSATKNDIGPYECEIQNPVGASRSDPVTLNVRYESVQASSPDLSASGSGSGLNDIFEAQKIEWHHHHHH

T5: hCEACAM8, human CEACAM8 ECD (35-332) (human, UniProt P31997 35-332)
T5 construct: With 24 amino acid extension containing a His-Tag
T5 sequence: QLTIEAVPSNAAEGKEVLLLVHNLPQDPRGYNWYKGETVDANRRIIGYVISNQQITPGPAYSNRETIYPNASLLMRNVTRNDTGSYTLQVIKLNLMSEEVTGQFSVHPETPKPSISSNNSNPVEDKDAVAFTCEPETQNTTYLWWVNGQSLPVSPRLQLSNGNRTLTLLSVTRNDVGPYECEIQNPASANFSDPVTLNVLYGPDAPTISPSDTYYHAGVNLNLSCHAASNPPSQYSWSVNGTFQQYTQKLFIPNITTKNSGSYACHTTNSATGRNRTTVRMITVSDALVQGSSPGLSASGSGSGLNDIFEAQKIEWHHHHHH


How the values were obtained:
Assay in all cases: ELISA
[1] = molecular target: T1, hCEACAM5, human CEACAM5 ECD (35-685)
[2] = molecular target: T2, hCEACAM1, human CEACAM1 ECD (35-428)
[3] = molecular target: T3, hCEACAM6, human CEACAM6 ECD (35-327)
[4] = molecular target: T4, hCEACAM7, human CEACAM7 ECD (36-248)
[5] = molecular target: T5, hCEACAM8, human CEACAM8 ECD (35-332)

Row | percentage of binding compared to full binding with human CEACAM5 [1] | percentage of binding compared to full binding with human CEACAM5 [2] | percentage of binding compared to full binding with human CEACAM5 [3] | percentage of binding compared to full binding with human CEACAM5 [4] | percentage of binding compared to full binding with human CEACAM5 [5] | Binder
1 | 100% | 0.3% | 0.3% | 0.3% | 0.5% | huMAb2-2 (antibody, V domains shown, Humanized MAb2 (VL1a + VH1a) fused to human IgG1 and human Ckappa constant domains; also called MAb2_VL1aVH1a-IgG1; MA2_VL1aVH1a-IgG1) VH: EVQLQESGPGLVKPGGSLSLSCAASGFVFSSYDMSWVRQTPERGLEWVAYISSGGGITYAPSTVKGRFTVSRDNAKNTLYLQMNSLTSEDTAVYYCAAHYFGSSGPFAYWGQGTLVTVSS VL: DIQMTQSPASLSASVGDRVTITCRASENIFSYLAWYQQKPGKSPKLLVYNTKTLAEGVPSRFSGSGSGTDFSLTISSLQPEDFATYYCQHHYGTPFTFGSGTKLEIK
2 | 100% | 0.3% | 0.3% | 0.3% | 1.4% | huMAb2-4 (antibody, human IgG1, kappa, V domains shown, Humanized MAb2, human IgG1 / Ckappa; also called MAb2_VL1d VH1-IgG1; MAb2_VL1dVH1-IgG1) VH: EVQLQESGPGLVKPGGSLSLSCAASGFVFSSYDMSWVRQTPERRLEWVAYISSGGGITYFPSTVKGRFTVSRDNAKNTLYLQMNSLTSEDTAIYYCAAHYFGSSGPFAYWGQGTLVTVSA VL: DIQMTQSPASLSASVGDTVTITCRASENIFSYLAWYQQKPGKSPKLLVYNTRTLAEGVPSRFSGSGSGTQFSLTISSLQPEDFGSYYCQHHYGTPFTFGSGTKLEIKR

The next lines start with the binder.

Row | Binder | percentage of binding compared to full binding with human CEACAM5 [1] | percentage of binding compared to full binding with human CEACAM5 [2] | percentage of binding compared to full binding with human CEACAM5 [3] | percentage of binding compared to full binding with human CEACAM5 [4] | percentage of binding compared to full binding with human CEACAM5 [5]
3 | huMAb2-3 (antibody, human IgG1, kappa, V domains shown, Humanized MAb2, human IgG1 / Ckappa; also called MAb2_VL1cVH1a-IgG1) VH: EVQLQESGPGLVKPGGSLSLSCAASGFVFSSYDMSWVRQTPERGLEWVAYISSGGGITYAPSTVKGRFTVSRDNAKNTLYLQMNSLTSEDTAVYYCAAHYFGSSGPFAYWGQGTLVTVSS VL: DIQMTQSPASLSASVGDRVTITCRASENIFSYLAWYQQKPGKSPKLLVYNTRTLAEGVPSRFSGSGSGTDFSLTISSLQPEDFATYYCQHHYGTPFTFGSGTKLEIKR | 100% | 0.3% | 0.3% | 0.3% | 0.6%
4 | huMAb2-1 (antibody, V domains shown, Humanized MAb2 (VL1 + VH1) fused to human IgG1 and human Ckappa constant domains; also called MAb2_VL1VH1-IgG1; MAb2VL1VH1-IgG1) VH: EVQLQESGPGLVKPGGSLSLSCAASGFVFSSYDMSWVRQTPERRLEWVAYISSGGGITYFPSTVKGRFTVSRDNAKNTLYLQMNSLTSEDTAIYYCAAHYFGSSGPFAYWGQGTLVTVSA VL: DIQMTQSPASLSASVGDTVTITCRASENIFSYLAWYQQKPGKSPKLLVYNTKTLAEGVPSRFSGSGSGTQFSLTISSLQPEDFGSYYCQHHYGTPFTFGSGTKLEIK | 100% | 0.3% | 0.2% | 0.3% | 0.9%
5 | chMAb2 (antibody, human IgG1, kappa, V domains shown, Chimeric, human IgG1, Ck isotype; also called MAb2-IgG1; chimeric MAb2) VH: EVQLQESGGVLVKPGGSLKLSCAASGFVFSSYDMSWVRQTPEKRLEWVAYISSGGGITYFPDTVQGRFTVSRDNAKNTLYLQMNSLKSEDTAIYYCAAHYFGSSGPFAYWGQGTLVTVSA VL: DIQMTQSPASLSASVGETVTITCRASENIFSYLAWYQQKQGKSPQLLVYNTKTLAEGVPSRFSGSGSGTQFSLKINSLQPEDFGSYYCQHHYGTPFTFGSGTKLEIKR | 100% | 0.3% | 0.3% | 0.3% | 0.6%
